Values belong to the binder of their own block, whether it stands above or below them.
B1: recombinant TREML1 ECD (human TREM-like transcript-1 extracellular domain) (ligand)
chain: QGIVGSLPEVLQAPVGSSILVQCHYRLQDVKAQKVWCRFLPEGCQPLVSSAVDRRAPAGRRTFLTDLGGGLLQVEMVTLQEEDAGEYGCMVDGARGPQILHRVSLNILPPEEEEETHKIGSLAENAFSDPAGSANPLEPSQDEKSIP
notes: Expressed in E. coli from pET30-TREML1 and purified on Ni-NTA; also called hTREML1; not shown: N-terminal polyhistidine tag from pET30
B4: recombinant human MD2 protein (receptor, UniProt Q9Y6Y9 19-160, looked up)
chain: QKQYWVCNSSDASISYTYCDKMQYPISINVNPCIELKRSKGLLHIFYIPRRDLKQLYFNLYITVNTMNLPKRKEVICRGSDDDYSFCRALKGETVNTTISFSFKGIKFSKGKYKCVVEAISGSPEEMLFCLEFVILHQPNSN
notes: also called hMD2; LY96

Key:
BSA (negative control) = BSA (negative control) (UniProt P02769 25-607); assay: solid phase binding assay, BSA coated as negative control
Chain of BSA (negative control) (P02769 25-607 limits assumed): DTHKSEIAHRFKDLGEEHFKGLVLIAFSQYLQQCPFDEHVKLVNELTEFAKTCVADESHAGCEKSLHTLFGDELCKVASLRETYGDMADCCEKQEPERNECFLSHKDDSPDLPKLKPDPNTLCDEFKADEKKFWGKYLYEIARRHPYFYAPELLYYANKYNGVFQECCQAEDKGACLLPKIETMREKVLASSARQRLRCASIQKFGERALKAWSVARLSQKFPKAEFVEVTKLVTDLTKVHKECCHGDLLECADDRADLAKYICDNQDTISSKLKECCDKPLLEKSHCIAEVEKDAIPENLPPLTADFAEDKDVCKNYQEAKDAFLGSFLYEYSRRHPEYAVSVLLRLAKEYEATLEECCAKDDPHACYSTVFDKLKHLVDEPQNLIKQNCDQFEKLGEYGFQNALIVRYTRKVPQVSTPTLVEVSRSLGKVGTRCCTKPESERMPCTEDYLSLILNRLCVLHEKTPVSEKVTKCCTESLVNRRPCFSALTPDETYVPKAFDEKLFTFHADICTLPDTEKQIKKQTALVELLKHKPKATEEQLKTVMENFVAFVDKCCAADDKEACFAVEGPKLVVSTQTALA
Protocol: (§1) To identify potential binding partners of TREML1 ECD, we used solid phase binding assay to assess interactions between TREML1 ECD and candidate proteins. Briefly, various candidate proteins and BSA (as a negative control) were coated on a 96-well plate and TREML1 ECD at various concentrations were added to the wells. After binding and washing, an anti-TREML1 antibody conjugated with horse radish peroxidase (HRP) was added to each well. After washing, HRP substrate, TMB (3,3′,5,5′-tetramethylbenzidine), was added. After reaction, absorbance at 450 nm was measured to assess TREML1 binding. An exemplary set of results is shown in FIG. 2, in which recombinant TREML1 ECD binds MD2 and TLR4 in a concentration-dependent manner.
(§2) To investigate the protein-protein interactions. Recombinant TLR4 (5 ug/ml in PBS), MD2 (5 ug/ml in PBS), CD14 (5 ug/ml in PBS), and BSA (negative control) proteins were plated separately on 96-well plates and incubated overnight at 4 degrees Celsius. The blocking buffer (2% BSA in PBS) was added to avoid the nonspecific binding for 2 hr at room temperature. A serial diluted TREML1 ECD (2.5 ug/ml to 156 ng/ml, 2-fold dilutions) solutions were added and allowed to incubate at room temperature for 2 hr. Then, anti-TREML1 antibody (1 ug/ml in PBS) was added for 1 hr. […] Absorbance at OD450/540 nm was measured with a microplate reader.

recombinant CD14 [1] = target: T1, recombinant CD14 (human, UniProt P08571 20-352, limits assumed); assay: solid phase binding assay, CD14 coated at 5 ug/ml
T1 construct: also called hCD14
T1 sequence (looked up): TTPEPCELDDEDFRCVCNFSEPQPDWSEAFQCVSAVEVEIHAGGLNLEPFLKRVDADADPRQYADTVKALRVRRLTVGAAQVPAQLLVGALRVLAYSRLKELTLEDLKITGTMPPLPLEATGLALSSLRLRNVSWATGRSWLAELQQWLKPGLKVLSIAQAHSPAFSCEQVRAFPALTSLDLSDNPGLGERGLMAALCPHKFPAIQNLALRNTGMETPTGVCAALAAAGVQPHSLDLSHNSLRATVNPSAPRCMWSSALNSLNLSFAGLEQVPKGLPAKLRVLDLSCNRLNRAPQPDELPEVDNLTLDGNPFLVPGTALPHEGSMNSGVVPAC
Protocol: as §1, §2

[2] = target: B4; assay: solid phase binding assay, TREML1 stalk coated, anti-His-HRP detection
Protocol: (§3) For TREML1 or mTREML1 stalk binding to human or mouse MD2 protein, TREML1 stalk or mTREML1 stalk (5 ug/ml in PBS) was coated separately on a 96-well plate. Recombinant hTLR4, hMD2, hCD14, or mMD2 was each serially diluted and added to the plates. Anti-His tag antibody-HRP was used as a detection antibody to detect the protein binding.

[3] = target: T2, recombinant TLR4 (toll-like receptor 4) (human, UniProt O00206 24-631, limits assumed); assay: solid phase binding assay, TREML1 stalk coated at 5 ug/ml, anti-His-HRP detection
T2 construct: also called hTLR4
T2 sequence (O00206 24-631 limits assumed): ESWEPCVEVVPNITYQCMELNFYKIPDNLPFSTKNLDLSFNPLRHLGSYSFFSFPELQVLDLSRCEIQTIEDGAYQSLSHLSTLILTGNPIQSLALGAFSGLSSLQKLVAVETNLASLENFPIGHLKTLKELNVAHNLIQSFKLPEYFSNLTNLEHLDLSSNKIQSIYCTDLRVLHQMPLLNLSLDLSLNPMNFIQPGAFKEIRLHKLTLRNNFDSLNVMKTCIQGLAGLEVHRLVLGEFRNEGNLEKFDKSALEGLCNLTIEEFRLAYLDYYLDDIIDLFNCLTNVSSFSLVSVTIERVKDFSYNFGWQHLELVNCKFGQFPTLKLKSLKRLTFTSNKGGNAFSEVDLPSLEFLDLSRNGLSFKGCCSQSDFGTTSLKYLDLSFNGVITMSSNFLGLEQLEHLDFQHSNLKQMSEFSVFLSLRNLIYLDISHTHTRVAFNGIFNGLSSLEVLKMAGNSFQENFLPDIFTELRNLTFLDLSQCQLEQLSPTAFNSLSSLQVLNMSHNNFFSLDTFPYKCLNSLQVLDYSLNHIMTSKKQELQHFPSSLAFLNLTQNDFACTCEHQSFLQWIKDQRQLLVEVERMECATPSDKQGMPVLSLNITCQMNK
Protocol: as §3

recombinant CD14 [4] = target: T1, recombinant CD14; assay: as above
Protocol: as §3

[5] = target: T3, recombinant mouse MD2 protein (mouse, UniProt Q9JHF9 19-160); assay: solid phase binding assay, mTREML1 stalk coated, anti-His-HRP detection
T3 construct: also called mMD2
T3 sequence (looked up): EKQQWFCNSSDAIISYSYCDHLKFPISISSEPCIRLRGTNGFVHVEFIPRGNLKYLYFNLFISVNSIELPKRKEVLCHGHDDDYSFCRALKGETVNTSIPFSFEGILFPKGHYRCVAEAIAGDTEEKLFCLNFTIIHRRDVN
Protocol: as §3

[6] = target: B1; assay: solid phase binding assay, MD2 coated
Protocol: as §1, §2

Binder: B1
binding result (BSA (negative control)): no binding (tested: 2.5 ug/ml to 156 ng/ml TREML1 ECD) | binding result (recombinant CD14 [1]): no binding (tested: 2.5 ug/ml to 156 ng/ml TREML1 ECD)

binding result [2]: binds | binding result [3]: no binding | binding result (recombinant CD14 [4]): no binding
B2: TREML1 stalk polypeptide (human) (peptide)
peptide: ILPPEEEEETHKIGSLAENAFSDPAGSANPLEPSQDEKSIP

binding result [5]: binds
B3: mTREML1 stalk polypeptide (mouse) (peptide)
peptide: EGEEAEDEKETYRIGTGSLLEDPSLDPSASAGPHEFRRRENSIP
notes: also called mouse TREML1 stalk

Binder: B4
binding result [6]: binds
